Reference: patent publication US20210347873A1 (SHANGHAI PHARMAEXPLORER, published 2021)
Numbering of substitutions follows the chain as printed.

B1: 8E7D9C7F5 (antibody, V domains shown)
VH: QVQLQQSGVELARPGASVKLSCKASGYTFTSYGISWVKQRTGQALEWIGEIYPRSGNTYYNEKFKGKATLTADKSSSTAYMELRSLTSEDSAVYFCARSGPITTLVATDYGMDYWGQGTSVTVSS
VL: DIVLTQSPASLAVSLGQRATISCRASKSVSTSSYSYMHWYQQKPGQPPKLLIKFASNLESGVPARFSGSGSGTDFTLNIHPVEEEDAATYYCQHSREFPYTFGGGTKLEIK
notes: Mouse hybridoma monoclonal antibody purified on Protein G
B2: 111D10D6G3 (antibody, V domains shown)
VH: QVQLQQPGAELVKPGASVKMSCKASGYTFTRHWITWVKQRPGQGLEWIGDIFPGSGSINYNEKFKSEATLTVEKSSSTAYMQLSSLTSEDSAVYYCARGDVDVWGTGTTVTVSS
VL: DIQMTQSPSSLSASLGERVSLTCRASQEIRGYLSWLQQKPNGTIKRLIYAASTLDSGVPKRFSATRSGSDFSLTISSLESEDFADYYCLQYASYPFTFGSGTKLEIK
notes: as for B1
B3: 97A3C2H4 (antibody, V domains shown)
VH: EVKLVESGGGLVQPGGSLKLSCAASGFTFSTYTMSWVRQTPEKRLEWVAYISYGGGSTSYPDTVKGRFTISRDNAKNTLYLQMSSLKSEDTAIYYCTRHVTVVENSMDYWGQGTSVTVSS
VL: DILLTQSPDILSVSPGERVSFSCRASQSIGTSIHWYQQRTNGSPRLLIKYVSESFSGTPSRFSGSGSGTAFTLTINSVESEDIADYYCQQTHSWPWTFGGGTKLEIK
notes: as for B1
B4: 97A3C2H4 (antibody, V domains shown)
VH: B3 VH
VL: B3 VL
notes: Mouse hybridoma antibody purified on Protein G
B5: 111D10D6G3 (antibody, V domains shown)
VH: B2 VH
VL: B2 VL
notes: as for B4
B6: L9G7 (antibody, human IgG1, V domains shown)
VH: QIQLVQSGAEVKKPGASVKVSCKASGYTFTSYGISWVRQAPGQGLEWMGWISAYNGNTNYAQKLQGRVTMTTDTSTSTAYMELRSLRSDDTAVYYCARTYYDILTGYYYYGMDVWGQGTTVTVSS
VL: EIVLTQSPGTLSLSPGERATLSCRTSQSVDTYLAWYQQKPGQAPRLLIYDASNRATGIPARFSGSGSGTDFTLTISSLEPEDFAVYYCQQRSNWPLTFGGGTKVEIK
B7: L1D12 (antibody, human IgG1, V domains shown)
VH: QVQLVQSGGGLVQPGGSLRLSCAASGFTVSSNYMSWVRQAPGKGLEWVSVIYSGGSTYYADSVKGRFTISRDNSKNTLYLQMNSLRAEDTAVYYCARGFHDILTGYGMDVWGQGTTVTVSS
VL: SSELTQDPAVSVALGQTVRITCQGDSLRNYYAGWYQQKPGQAPVLVIYGKNNRPSGIPDRFSGSSSGNTASLTITGTQAEDEADYYCSSRDNSGTHLVEFGGGTKLTVL
notes: also called LID12
B8: 2-1G11 (antibody, V domains shown)
VH: EVQLVESRGGVVQPGRSLRLSCAASGFTFSSYGMHWVRQAPGKGLEWVAVISYDGSNKYYADSVKGRFTISRDNSKNTLYLQMNSLRAEDAAVYYCARDRVDILTGYSIYGMDVWGQGTTVTVSS
VL: B6 VL with L4M, G9A, T25A, D30S, T31S, N53K
notes: From a human naive scFv phage library; also called human BLyS antibody 2-1G11
B9: L9G7 (antibody, V domains shown)
VH: B6 VH
VL: B6 VL
notes: From a human naive scFv phage library; also called human BLyS antibody L9G7
B10: L1D12 (antibody, V domains shown)
VH: B7 VH
VL: B7 VL
notes: From a human naive scFv phage library; also called human BLyS antibody L1D12; LID12

target: T1, biotinylated hBLyS-ECD (human, UniProt Q9Y275 134-285, biotinylated with Biotin-X-X-NHS (molar ratio 7:1); sites not stated); assay: blocking ELISA: biotinylated hBLyS-ECD on coated BAFF R, antibody 100 nM
T1 construct: also called biotinylated immunogen; BLyS protein
Method: (§1) BAFF R (purchased from R & D Systems) was aliquoted into 96-well ELISA plate at 50 ng per well, and the plate was sealed with plastic film and incubated overnight at 4° C. On the next day the plate was washed four times with the plate washing buffer [PBS buffer containing 0.05% (v/v) Tween20] and added with blocking solution [PBS buffer containing 0.05% (v/v) Tween20 and 1% (w/w) BSA], then blocked for 1 hour at room temperature. The blocking solution was removed and 50 μL per well of the lead antibodies prepared in Embodiment 1 and 2 were added followed by the addition of 50 μL per well of the biotinylated hBLyS-ECD prepared in Embodiment 2. After incubation for 1 hour at 37° C., the plate was washed four times with the plate washing buffer [PBS buffer containing 0.05% (v/v) Tween20]. 100 μL per well of HRP-labeled (horseradish peroxidase) avidin (purchased from Sigma) was added and incubated at 37° C. for 1 hour. The plate was then washed four times with the plate washing buffer [PBS buffer containing 0.05% (v/v) Tween20]. 100 μL of TMB substrate was aliquoted into each well and after incubation for 5 minutes at room temperature, then 100 μL of stop solution (1.0 N HCl) was aliquoted into each well. A₄₅₀ₙₘ values were read with an ELISA plate reader (SpectraMax 384plus, Molecular Device) and the results were shown in FIGS. 9A-9B and Table 15. It was shown in Table 15 that the binding of BLyS protein to its receptor BAFF R could be blocked by the BLyS antibody.

T1 sequence (Q9Y275 134-285): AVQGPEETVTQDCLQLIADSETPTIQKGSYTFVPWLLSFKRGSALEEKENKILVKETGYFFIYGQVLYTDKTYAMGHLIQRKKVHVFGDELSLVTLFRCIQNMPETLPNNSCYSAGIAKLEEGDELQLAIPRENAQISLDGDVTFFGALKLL

Row | Binder | OD450 nm [OD450 nm]
1 | B1 | 0.11
2 | B2 | 0.605
3 | B3 | 0.107

target: T1, biotinylated hBLyS-ECD; assay: blocking ELISA: biotinylated hBLyS-ECD on coated BAFF R, antibody 0.8 nM
Method: as §1

Row | Binder | OD450 nm [OD450 nm]
4 | B1 | 0.294
5 | B2 | 0.717
6 | B3 | 0.424

target: T2, human APRIL protein (human, UniProt O75888 105-250, limits assumed); assay: ELISA: APRIL coated at 1.0 µg/mL, antibody titrated, HRP secondary antibody
T2 construct: Bought protein; also called recombinant APRIL protein
T2 sequence (looked up): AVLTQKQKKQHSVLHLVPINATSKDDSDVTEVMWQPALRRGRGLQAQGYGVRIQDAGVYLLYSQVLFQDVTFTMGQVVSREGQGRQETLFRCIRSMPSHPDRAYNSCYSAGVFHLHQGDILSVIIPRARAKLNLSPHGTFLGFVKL
Method: To test whether the BLyS antibody cross-reacted with human APRIL protein, APRIL protein (purchased from R & D Systems) was first diluted to a final concentration of 1.0 μg/mL with PBS, and then 50 μL of which per well was aliquoted into a 96-well ELISA plate, and the plate was subsequently sealed with plastic film and incubated at 4° C. overnight. On the next day the plate was rinsed four times with the plate washing buffer [PBS buffer containing 0.0500 (v/v) Tween20] and a blocking solution [PBS buffer containing 0.05 (v/v) Tween20 and 1 (w/w) BSA] was added, then the protein was blocked at 37° C. for 2 hours. The blocking solution was removed and 100 μL per well of the lead antibodies prepared in Embodiment 1 and 2 were added in. After incubation for 1 hour at 37° C., the plate was rinsed four times with the plate washing buffer [PBS buffer containing 0.05 (v/v) Tween20]. HRP-labeled (horseradish peroxidase) secondary antibody (purchased from Sigma) was added in and incubated at 37° C. for 1 hour. The plate was then rinsed four times with the plate washing buffer [PBS buffer containing 0.050 (v/v) Tween20]. 100 μL of TMB substrate was aliquoted into each well and after incubation at room temperature for 5 minutes, 100 μL of stop solution (1.0 N HCl) was aliquoted into each well. A₄₅₀ₙₘ values were read via an ELISA plate reader (SpectraMax M5e purchased from Molecular Devices) and the results were shown in FIGS. 6A-6B and Table 11. […] As used herein, the IgG control is human IgG and the data in the table is GD number at 450 nm.

Row | Binder | binding result
7 | B4 | no binding (tested: 66.7 nM)
8 | B5 | no binding (tested: 66.7 nM)
9 | B6 | no binding (tested: 66.7 nM)
10 | B7 | no binding (tested: 66.7 nM)

target: T1, biotinylated hBLyS-ECD; assay: competitive ELISA on biotinylated hBLyS-ECD; competitor L9G7
Method: The purified human BLyS antibody and hybridoma antibody were subjected to competitive enzyme-linked immunosorbent assay and the epitopes binding by different antibodies were analyzed.
Purified BLyS antibody was first diluted to a final concentration of 1.0 μg/mL with PBS, then aliquoted into a 96-well ELISA plate at 50 μL per well, and the plate was subsequently sealed with plastic film and incubated at 4° C. overnight. On the next day the plate was rinsed four times with the plate washing buffer [PBS buffer containing 0.05% (v/v) Tween20] and mixed with blocking solution [PBS buffer containing 0.05% (v/v) Tween20 and 1% (w/w) BSA], and then blocked at 37° C. for 1 hour. The blocking solution was removed, and the competitive antibody and IgG control were diluted to a final concentration of 40 μg/mL with PBS and then aliquoted into the 96-well ELISA plate at 50 μL per well. The biotinylated hBLyS-ECD was then diluted with PBS to a final concentration of 2 ng/mL and pipetted into the 96-well ELISA plate at 50 μL per well. The final concentration of competitive antibody and hBLyS-ECD was 20 μg/mL and 1 ng/mL, respectively. After incubation at 37° C. for 1 hour, the plate was rinsed four times with the plate washing buffer [PBS buffer containing 0.05% (v/v) Tween20]. 100 μL per well of HRP-labeled (horseradish peroxidase) streptavidin (purchased from Sigma) was added into the plate and the plate was incubated at 37° C. for 1 hour. The plate was then washed four times with the plate washing buffer [PBS buffer containing 0.05% (v/v) Tween20]. 100 μL of TMB substrate was aliquoted into each well and after incubation at room temperature for 5 minutes, 100 μL of stop solution (1.0 N HCl) was aliquoted into each well. A₄₅₀ₙₘ values were read by an ELISA plate reader (SpectraMax M5e, purchased from Molecular Device) and the results were shown in Tables 18A-18B. […] The data shown in the table is the inhibitory rate (%) of the binding level of the original antibody to hBLyS-ECD after addition of the competitive antibody.

Row | Binder | inhibitory rate (%)
11 | B8 | 79
12 | B9 | 95
13 | B10 | 90
